B1: Cyclic AMP phosphoprotein, 19 kDa (natural protein, human, UniProt P56211-1 1-112, looked up)
chain: MSAEVPEAASAEEQKEMEDKVTSPEKAEEAKLKARYPHLGQKPGGSDFLRKRLQKGQKYFDSGDYNMAKAKMKNKQLPTAAPDKTEVTGDHIPTPQDLPQRKPSLVASKLAG
notes: Cyclic AMP phosphoprotein, 19 kDa, human; also called ARPP-19; source: insect cell/baculovirus, purified, spotted (Invitrogen Protoarray v4.0)
B2: G protein, γ-transducing activity polypeptide 1 (natural protein, human, UniProt P63211 1-74, looked up)
chain: MPVINIEDLTEKDKLKMEVDQLKKEVTLERMLVSKCCEEVRDYVEERSGEDPLVKGIPEDKNPFKELKGGCVIS
notes: G protein, γ-transducing activity polypeptide 1, human; also called GNGT1; source: insect cell/baculovirus, purified, spotted (Invitrogen Protoarray v4.0)
B3: CUE domain containing 1 (natural protein, human, UniProt Q9NWM3 1-386, looked up)
chain: MTSLFRRSSSGSGGGGTAGARGGGGGTAAPQELNNSRPARQVRRLEFNQAMDDFKTMFPNMDYDIIECVLRANSGAVDATIDQLLQMNLEGGGSSGGVYEDSSDSEDSIPPEILERTLEPDSSDEEPPPVYSPPAYHMHVFDRPYPLAPPTPPPRIDALGSGAPTSQRRYRNWNPPLLGNLPDDFLRILPQQLDSIQGNAGGPKPGSGEGCPPAMAGPGPGDQESRWKQYLEDERIALFLQNEEFMKELQRNRDFLLALERDRLKYESQKSKSSSVAVGNDFGFSSPVPGTGDANPAVSEDALFRDKLKHMGKSTRRKLFELARAFSEKTKMRKSKRKHLLKHQSLGAAASTANLLDDVEGHACDEDFRGRRQEAPKVEEGLREGQ
notes: CUE domain containing 1, human; also called CUEDC1; source: insect cell/baculovirus, purified, spotted (Invitrogen Protoarray v4.0)
B4: Leupaxin (natural protein, human, UniProt O60711-1 1-386, looked up)
chain: MEELDALLEELERSTLQDSDEYSNPAPLPLDQHSRKETNLDETSEILSIQDNTSPLPAQLVYTTNIQELNVYSEAQEPKESPPPSKTSAAAQLDELMAHLTEMQAKVAVRADAGKKHLPDKQDHKASLDSMLGGLEQELQDLGIATVPKGHCASCQKPIAGKVIHALGQSWHPEHFVCTHCKEEIGSSPFFERSGLAYCPNDYHQLFSPRCAYCAAPILDKVLTAMNQTWHPEHFFCSHCGEVFGAEGFHEKDKKPYCRKDFLAMFSPKCGGCNRPVLENYLSAMDTVWHPECFVCGDCFTSFSTGSFFELDGRPFCELHYHHRRGTLCHGCGQPITGRCISAMGYKFHPEHFVCAFCLTQLSKGIFREQNDKTYCQPCFNKLFPL
notes: Leupaxin, human; also called LPXN; source: insect cell/baculovirus, purified, spotted (Invitrogen Protoarray v4.0)
B5: Arginine vasopressin-induced 1 (natural protein, human, UniProt Q5T686 1-147, looked up)
chain: MGTPASVVSEPPPWQAPIEARGRKQASANIFQDAELLQIQALFQRSGDQLAEERAQIIWECAGDHRVAEALKRLRRKRPPRQKPLGHSLHHCSRLRILEPHSALANPQSATETASSEQYLHSRKKSARIRRNWRKSGPTSYLHQIRH
notes: Arginine vasopressin-induced 1, human; also called AVPI1; source: insect cell/baculovirus, purified, spotted (Invitrogen Protoarray v4.0)
B6: Proteasome (prosome, macropain) subunit, alpha type, 3 (natural protein, human, UniProt P25788-1 1-255, looked up)
chain: MSSIGTGYDLSASTFSPDGRVFQVEYAMKAVENSSTAIGIRCKDGVVFGVEKLVLSKLYEEGSNKRLFNVDRHVGMAVAGLLADARSLADIAREEASNFRSNFGYNIPLKHLADRVAMYVHAYTLYSAVRPFGCSFMLGSYSVNDGAQLYMIDPSGVSYGYWGCAIGKARQAAKTEIEKLQMKEMTCRDIVKEVAKIIYIVHDEVKDKAFELELSWVGELTNGRHEIVPKDIREEAEKYAKESLKEEDESDDDNM
notes: Proteasome (prosome, macropain) subunit, alpha type, 3, human; also called PSMA3; source: insect cell/baculovirus, purified, spotted (Invitrogen Protoarray v4.0)
B7: Myosin light chain 5, regulatory (natural protein, human, UniProt Q02045-1 1-173, looked up)
chain: MASRKTKKKEGGALRAQRASSNVFSNFEQTQIQEFKEAFTLMDQNRDGFIDKEDLKDTYASLGKTNVKDDELDAMLKEASGPINFTMFLNLFGEKLSGTDAEETILNAFKMLDPDGKGKINKEYIKRLLMSQADKMTAEEVDQMFQFASIDVAGNLDYKALSYVITHGEEKEE
notes: Myosin light chain 5, regulatory, human; also called MYL5; source: insect cell/baculovirus, purified, spotted (Invitrogen Protoarray v4.0)
B8: Prefoldin 5, transcript variant 1 (natural protein, human, UniProt Q99471-1 1-154, looked up)
chain: MAQSINITELNLPQLEMLKNQLDQEVEFLSTSIAQLKVVQTKYVEAKDCLNVLNKSNEGKELLVPLTSSMYVPGKLHDVEHVLIDVGTGYYVEKTAEDAKDFFKRKIDFLTKQMEKIQPALQEKHAMKQAVMEMMSQKIQQLTALGAAQATAKA
notes: Prefoldin 5, human; also called PFDN5; source: insect cell/baculovirus, purified, spotted (Invitrogen Protoarray v4.0)
B9: Centaurin, alpha 2 (natural protein, human, UniProt Q9NPF8 1-381, looked up)
chain: MGDRERNKKRLLELLRAPDTGNAHCADCGAADPDWASYKLGIFICLNCCGVHRNFPDISRVKSVRLDFWDDSIVEFMIHNGNLRVKAKFEARVPAFYYIPQANDCLVLKEQWIRAKYERREFMADGETISLPGNREGFLWKRGRDNSQFLRRKFVLLAREGLLKYFTKEQGKSPKAVISIKDLNATFQTEKIGHPHGLQITYRRDGHTRNLFVYHESGKEIVDWFNALRAARLQYLKMAFPELPESELVPFLTRNYLKQGFMEKTGPKQKEPFKKRWFALDCHERRLLYYKNPLDAFEQGQVFLGNKEQGYEAYEDLPKGIRGNRWKAGLTIVTPERRFVLTCPSEKEQQEWLESLRGVLSSPLTPLNRLTASTESGRSSR
notes: Centaurin, alpha 2, human; also called CENTA2; source: insect cell/baculovirus, purified, spotted (Invitrogen Protoarray v4.0)
B10: AMME chromosomal region gene 1-like (natural protein, human, UniProt Q6DCA0 1-310, looked up)
chain: MGKRRCVPPLEPKLAAGCCGVKKPKLSGSGTHSHGNQSTTVPGSSSGPLQNHQHVDSSSGRENVSDLTLGPGNSPITRMNPASGALSPLPRPNGTANTTKNLVVTAEMCCYCFDVLYCHLYGFPQPRLPRFTNDPYPLFVTWKTGRDKRLRGCIGTFSAMNLHSGLREYTLTSALKDSRFPPLTREELPKLFCSVSLLTNFEDASDYLDWEVGVHGIRIEFINEKGVKRTATYLPEVAKEQDWDQIQTIDSLLRKGGFKAPITSEFRKTIKLTRYRSEKVTISYAEYIASRQHCFQNGTLHAPPLYNHYS
notes: AMME chromosomal region gene 1-like, human; also called AMMECR1L; source: insect cell/baculovirus, purified, spotted (Invitrogen Protoarray v4.0)
B11: Centrin EF-hand protein 3 (natural protein, human, UniProt O15182 1-167, looked up)
chain: MSLALRSELVVDKTKRKKRRELSEEQKQEIKDAFELFDTDKDEAIDYHELKVAMRALGFDVKKADVLKILKDYDREATGKITFEDFNEVVTDWILERDPHEEILKAFKLFDDDDSGKISLRNLRRVARELGENMSDEELRAMIEEFDKDGDGEINQEEFIAIMTGDI
notes: Centrin EF-hand protein 3, human; also called CETN3; source: insect cell/baculovirus, purified, spotted (Invitrogen Protoarray v4.0)

Each binder was assayed against T1, NEMO (NF-κB essential modulator), tag-free, biotinylated (human, UniProt Q9Y6K9 1-419, biotin (in vitro biotinylation kit, biotin:NEMO molar ratio 9:1)) (assay: peptide or protein array; Invitrogen Protoarray v4.0, about 8,400 human proteins spotted on nitrocellulose-coated glass slides; 10 µg biotinylated tag-free NEMO in 120 µl probing buffer (PBS, 0.5 mM DTT, 5 mM MgCl2, 5% glycerol, 0.05% Triton X-100), 4°C, 1.5 h; bound NEMO detected with labelled streptavidin; hits Z-score > 3, hits of the biotin-GST control array subtracted). Conditions: both partners purified.
T1 construct: NEMO, NF-κB essential modulator, human, 48 kDa; also called biotinylated NEMO; biotin-NEMO; source: E. coli BL21(DE3), purified (glutathione sepharose), GST removed with thrombin, biotinylated in vitro
B1: binds.
B2: binds.
B3: binds.
B4: binds.
B5: binds.
B6: binds.
B7: binds.
B8: binds.
B9: binds.
B10: binds.
B11: binds.
